Reference: the Human Domainome abundance scans (Beltran et al. 2025)

B1: Membrane-associated guanylate kinase, WW and PDZ domain-containing protein 1, residues 352 to 401; numbered along this chain, Q96QZ7 (parent)
chain: TEELDSELELPAGWEKIEDPVYGIYYVDHINRKTQYENPVLEAKRKKQLE
B2: Chromodomain-helicase-DNA-binding protein 5, residues 338 to 390; numbered along this chain, Q8TDI0 (parent)
chain: YETDHQDYCEVCQQGGEIILCDTCPRAYHLVCLDPELEKAPEGKWSCPHCEKE

Variants of: B1
Test: abundance fitness (aPCA) (normalised: wild type 0, dead -1); higher = more abundant; growth selection in yeast, the domain comes from the species named
Settings: Homo sapiens

Abundance fitness: each site, then its substitutions
E3: P -0.744, Q -0.226, A -0.425
S6: E -0.183, N -0.171, L -0.073, M -0.179, T 0.142, D -0.141, R 0.103, V 0.062, F -0.231, W -0.44, P -0.358, K -0.148, G -0.041, H -0.203, A -0.033, I -0.184, C -0.447, Q -0.046
D5: F -0.006, H -0.192, A 0.047, M -0.421, Q -0.128, W -0.303, T 0.059, K 0.086, I 0, P 0.023, C 0.032, V 0.001
E7: H -0.217, L -0.057, G 0.05, K 0.111, R -0.037, N -0.228, I -0.314, S -0.153, D -0.039, M -0.046, Q -0.404, A 0.056, P -0.217, F -0.236
E2: W 0.113, Y -0.403, A -0.185, C 0.319, S -0.191, N 0.372, P -0.266, R -0.095, G -0.086, Q -0.145, K -0.214, L -0.35, M -0.265, T 0.129, D -0.314, H -0.523, V -0.02
L4: S -0.037, N -0.333, G -0.102, W -0.237, A -0.101, I 0.349, K 0.019, R 0.103, F -0.051, Q -0.067, V -0.064, C -0.593, E -0.239, T -0.021, H 0.202, Y -0.444, D -0.682
T1: E 0.069, V -0.098, I -0.379, R 0.104, W -0.351, G -0.118, S 0.004, C -0.35, M -0.074, L -0.128, Y -0.155, A -0.474

Variants of: B2
Test: as above
Settings: Homo sapiens

Abundance fitness of substitutions, site by site:
K44: L -0.009, W -0.236, Q -0.053, D 0.216, P -0.255, G 0.065, M 0.116, A -0.255, Y -0.599, S -0.125, R 0.14, E 0.031, C -0.051, H -0.341, I -0.32, T 0, F -0.259, N -0.237
G43: C -0.117, Q -0.074, R -0.11, D 0.044, V 0.029, I -0.169, T 0.235, E 0.029, F -0.138, P 0.032, L -0.096, A -0.192, S 0.087, M -0.088, K 0.057, N 0.23, Y -0.323, H 0.166, W -0.223
P41: E -0.114, L -0.135, C -0.379, N 0.18, V -0.096, R -0.075, M -0.124, A 0.058, H 0.056, Q -0.568, W -0.323, I 0.117, Y -0.443, T -0.17, F -0.164, K -0.118, G -0.106
E51: Q -0.005, Y -0.207, C -0.123, V -0.209, S -0.365, I -0.387, D -0.114, R -0.396, L -0.105, N 0.086, A -0.12, W -0.25, K 0.031, T 0.088, M -0.401, P -0.367, G -0.095, H -0.367
K39: Y -0.278, T -0.029, V -0.189, W -0.242
E53: L 0.022, R -0.341, G 0.086, K -0.173, A -0.246, V -0.29, W -0.526, Y -0.219, C 0.222, D 0.016, S -0.548
W45: Y -0.293, L -0.157, I -0.146, Q -0.29, S -0.054, G -0.091, E -0.202, F -0.05, D -0.268, C 0.157, M 0.115, A -0.105, H 0.283, V 0, P -0.086, T -0.393, K -0.046
C47: K -0.599, P -0.96, T -0.43, R -0.922, E -0.9, S -0.609, F -0.765, L -0.855, D 0.064, W -0.58, V -0.773, G -0.797, I -0.95, H -0.248, M -0.945, A -0.841, N -0.953, Q -0.918, Y -1.2
E42: T 0.014, G -0.117, D -0.013, W -0.318, F -0.413, H -0.068, I -0.019, P -0.184, K -0.563, Q -0.224, Y -0.076, V 0.068, A -0.113, L -0.05, R -0.085, S -0.241, M 0.138
A40: N 0.187, V -0.033, Q -0.273, M 0.017, I 0.131, W -0.404, T -0.088, D -0.243, K -0.218, E -0.274, H -0.094, Y -0.23, P -0.023, C -0.396, R -0.072, G -0.168, S 0.024, F 0.3
K52: D -0.038, W -0.082, V -0.324, E -0.288, H 0.223, A -0.182, S -0.115, Q -0.482, N -0.378, F -0.248, C -0.381, R -0.109, M 0.083, P -0.5, T 0.473, I -1.1, G 0.028, L -0.249
S46: F -0.035, V 0.011, H -0.203, G -0.005, N -0.056, T 0.024, L 0.051, D -0.197, A -0.11, P -0.109, R -0.143, Y -0.335, M -0.266, C 0.073, Q -0.331, K -0.258, I 0.137, W -0.14, E -0.023
H49: M -0.234, K 0.041, L -0.176, W -0.69, Q 0.032, D 0.422, E -0.225, P -0.024, Y -0.042, N 0.104, T 0.139, R -0.291, G 0.071, V -0.45, S -0.312, A -0.011
C50: Y -0.507, A -0.503, E 0.025, N -0.498, G -0.55, W -0.718, S -0.416, D -0.626, M -1.01, H 0.231, P -0.499, L -0.575, K -0.405, Q -0.365, R -0.71, T -0.409, F -0.654
P48: C 0.016, F 0.124, H -0.484, N 0.014, E -0.017, V -0.04, I 0.025, Q -0.087, W 0.01, M 0.107, Y -0.022, T -0.006, S 0.016
